Measured values reported in patent US20230183337A1 (UNIVERSIT D AIXMARSEILLE, published 2023).
Each block holds one binder with its values, some of them ahead of it.

What was measured:
Nectin-4 (SUM190 cells) = target: T1, Nectin-4 (SUM190 cells) (UniProt Q96NY8 32-510); assay: FACS
T1 chain: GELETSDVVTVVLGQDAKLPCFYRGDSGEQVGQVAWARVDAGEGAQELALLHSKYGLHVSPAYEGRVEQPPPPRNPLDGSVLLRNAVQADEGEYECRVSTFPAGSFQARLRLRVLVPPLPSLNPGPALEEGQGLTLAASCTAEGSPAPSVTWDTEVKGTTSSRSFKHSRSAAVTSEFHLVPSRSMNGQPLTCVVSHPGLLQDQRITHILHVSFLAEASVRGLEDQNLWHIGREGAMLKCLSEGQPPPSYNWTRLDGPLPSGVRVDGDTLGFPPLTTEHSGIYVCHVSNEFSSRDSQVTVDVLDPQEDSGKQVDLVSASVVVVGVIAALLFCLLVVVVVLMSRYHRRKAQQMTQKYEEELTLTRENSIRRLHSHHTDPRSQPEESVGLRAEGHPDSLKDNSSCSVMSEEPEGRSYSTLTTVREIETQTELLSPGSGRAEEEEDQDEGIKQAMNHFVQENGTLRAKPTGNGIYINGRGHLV

[1] = target: T2, human Nectin-4 (cell surface nectin-4 on SUM190 tumor cells; nectin-4 in breast cancer tissues) (human, UniProt Q96NY8 32-510); assay: FACS on SUM190 cells, serial dilutions of mAb
T2 construct: Endogenous nectin-4 of the human SUM190 breast cancer cell line (FACS) and of patient FFPE tumour tissue (IHC); also called PVRL4
T2 sequence: T1 chain

[2] = target: T3, human Nectin-4 (cell surface nectin-4 on SUM190 tumor cells; nectin-4 in breast cancer tissues) (UniProt Q96NY8 32-510); assay: FACS
T3 chain: T1 chain

EC50 (Nectin-4 (SUM190 cells)): 0.052 µg/mL
B1: N41 (antibody, V domains shown)
VH: QVQLKQSGPGLVQPSQSLSITCTVSGFSLTNYGVHWVRQSPGKGLEWLGVIWSGGSTDYNAAFISRLSISKDTSKSQVFFKMNSLQADDTAIYYCARELIHAMDNWGQGTSVTVSS
VL: DIQMTQSPASLSVSVGETVTITCRASENIYSNLAWYQQKQGNSPQLLVFAATNLADGVPSRFSGSGSGTQYSLKINSLQSEDFGTYYCQHFWGTPTFGGGTKLEIK

binding result [1]: binds | EC50 [2]: 0.018 µg/mL
B2: murine monoclonal antibody 5A12.2 (hybridoma CNCM I-5407) (antibody, V domains shown)
VH: QIQLQQSGAELVKPGASVTLSCKTSGFTFNSMYISWLKQKPGQSLEWIAWIYAGTGGTRFNQKFTGKVQLTVDTSSSTAYMQFSSLTTDDSAIYYCAIRSGFVPMDYWGQGTSVTVSS
VL: SIVMTQTPKFLLVSAGDRVTITCKASQSVSNDVAWYQQKPGQSPKLLIYYASNRYTGVPDRFTGSGYGTDFTFTISTVQAEDLAVYFCQQDYSSPWTFGGGTKLEIK
notes: Whole murine monoclonal antibody from a hybridoma with a kappa light chain; also called mAb 5A12.2; 5A12.2 mAb

EC50 (Nectin-4 (SUM190 cells)): 0.034 µg/mL
B3: 14A5 (antibody, V domains shown)
VH: EVLLQQSGPELVKPGASVKIPCKASGYTFTDYTMDWVKQSHGKSLEWIGDINPNNDVTMYNEKFKGRATLTVDKSSSTAYMEVRSLTSEDTAVYYCVRGRGFAYWGQGTLVTVSA
VL: DIVLTQSPASLIVSLGQRATISCRASQSVSTSSNSYMHWYQQKPGQPPKLLIRFASNLESGVPARFSGSGSGTYFTLNIHPVEEEDSATYYCQHSWEIPYTFGGGTKLEIK
